Measured values: patent publication US20140056918A1 (Novo Nordisk, published 2014)

T1: Human OSCAR-ECD (recombinant extracellular domain of human OSCAR) (human, UniProt Q8IYS5 19-218)
T1 construct: also called OSACAR-ECD
T1 chain: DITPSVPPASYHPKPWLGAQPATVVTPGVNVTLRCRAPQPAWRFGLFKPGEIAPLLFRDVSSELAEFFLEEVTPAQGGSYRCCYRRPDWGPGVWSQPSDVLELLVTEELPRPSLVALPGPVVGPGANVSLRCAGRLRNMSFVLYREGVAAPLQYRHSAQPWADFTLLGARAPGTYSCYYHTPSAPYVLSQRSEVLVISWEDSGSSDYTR

T2: Human OSCAR (osteoclast-associated receptor), full length, on cells (human)
T2 construct: The signal peptide limits cannot be read from the text; also called hOSCAR; HEK-OSCAR cells
T2 chain: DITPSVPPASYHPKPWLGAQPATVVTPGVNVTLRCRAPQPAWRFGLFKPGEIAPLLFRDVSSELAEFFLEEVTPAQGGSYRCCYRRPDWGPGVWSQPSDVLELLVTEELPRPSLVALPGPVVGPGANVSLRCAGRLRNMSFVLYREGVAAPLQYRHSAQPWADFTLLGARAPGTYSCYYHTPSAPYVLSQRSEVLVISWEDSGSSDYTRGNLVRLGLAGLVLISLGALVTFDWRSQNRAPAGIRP


Tests used:
[1] = target: T1, Human OSCAR-ECD (recombinant …); experiment: SPR (Biacore T100), mAb coupled or captured on chip, OSCAR-ECD injected, 1:1 fit
Description: The kinetic parameters (kₐ, kd and KD) for the interaction were calculated using a 1:1 interaction Langmuir fitting model.

[2] = target: T1, Human OSCAR-ECD (recombinant …); experiment: SPR competition, 50 nM OSCAR-ECD premixed with mAb, over immobilised collagen II; set-up: unit not given here
Description: (§1) The experiment was performed using a Biacore T 100 instrument (GE Healthcare). Human collagen 1 (Sigma, # C5483) and human collagen 2 (Millipore #CC052) were diluted with 10 mM NaOAc, pH 4.5 and immobilized on a Biacore CM3 sensor chip (GE Healthcare) using amine coupling chemistry (GE Healthcare). Immobilization was performed according to the standard procedure, but at 5° C. in order to prevent aggregation collagens, with immobilized levels of ca 250 RU on flow cells (FC) 2 and 4. A blank immobilization was performed on FC 1 & 3, which were used as reference cells. HBS-EP buffer (10 mM HEPES, 150 mM NaCl, 3 mM EDTA, 0.05% Polysorbat P20, pH7.4) was used as running buffer for the immobilization. Buffer containing HBS-EP/+0.1% BSA was used for the competition assay. The competition experiment was performed at 5° C. at a flow rate of 50 μl/min. […] OSCAR was mixed with various concentrations of anti-OSCAR antibodies ranging from 0-10 μg/ml prior to injection. Binding curves were measured for 360 s followed by 240 s of dissociation. The chip surface was regenerated for 2×20 s with 10 mM glycine, pH 2.0 between assays.
(§2) Human collagen I and II were immobilized to the surface of a Biacore sensor chip by amine coupling. […] It was hypothesized that an antibody inhibiting binding of OSCAR to collagen would lead to a concentration-dependent loss of signal, whereas a non-inhibiting antibody would enhance the signal due to the increased mass of the OSCAR-antibody complex.

[3] = target: T2, Human OSCAR (osteoclast-associated …); experiment: flow cytometry on primary human monocytes, donor #2
Description: (§3) Cell number and viability were determined using a Cedex cell counter. The cells were diluted in washing buffer (1×PBS (—Ca²⁺/—Mg²⁺)+5% FBS+0.1% Na-azide) to […]. In the case of monocytes, the cells were further blocked by adding 10 μl of a hFcR blocker (Miltenyi, #130-059-901) and incubated for 10 minutes at 4° C. 50 μl of cells (50.000 cells/well) were seeded into 96 well round-bottomed microtiter plates. Hybridoma supernatants or purified antibodies (in serial dilutions) were added to the cells at 50 μl/well. The isotype-matched purified irrelevant human mAb or mouse mAb served as negative controls (mouse IgG1, BD, #553452; mouse IgG2a, BD, #557353; mouse IgG2b, BD, #557352). […] Cells were washed in PBS, re-suspended in fixation buffer (1×PBS (—Ca²⁺/—Mg²⁺), pH7.2+1% formalin (B&B, #LAB96751.0500) and analysed by FACS flow cytometer. EC₅₀ values were calculated using a GraphPad Prism 5 software.

[4] = target: T2, Human OSCAR (osteoclast-associated …); experiment: cell-based or functional assay
[5] = target: T2, Human OSCAR (osteoclast-associated …); experiment: flow cytometry on primary human monocytes, donor #1
Description: as §3

[6] = target: T1, Human OSCAR-ECD (recombinant …); experiment: SPR competition, 50 nM OSCAR-ECD premixed with mAb, over immobilised collagen I
Description: as §1, §2

Row | Kd [1] | binding of OSCAR-ECD to collagen II with 10 µg/mL mAb [2] | EC50 [3] | IC50 (IL-8), ColI-induced IL-8 release from moDC, Donor 1 [4] | IC50 (IL-8), ColI-induced IL-8 release from moDC, Donor 2 [4] | IC50 (IL-8), ColI-induced IL-8 release from moDC, Donor 3 [4] | IC50 (IL-8), ColI-induced IL-8 release from moDC, Donor 4 [4] | EC50 [5] | binding of OSCAR-ECD to collagen I with 10 µg/mL mAb [6] | IC50 (IL-8), ColI-induced IL-8 release from moDC, Donor 5 [4] | IC50 (IL-8), ColI-induced IL-8 release from moDC, Donor 6 [4] | Binder
1 | 2.7 nM | 335 | 0.12 nM | < 0.1 nM | < 0.1 nM | 0.1 nM | 0.03 nM | 1.21 nM | 145 | – | – | 7F1A1 (antibody, V domains shown, Mouse anti-human OSCAR mAb; The heavy chain entry covers only VH-CH1 and the start of the hinge) VH: QVQLQQSGAELVRPGTSVKVSCKASGYAFTNYMIEWVKKRPGQGLEWIGVINPGSGGTNYNEKFENKATLTADKSSSTAYMQLSSLTSDDSAVYFCARSLDFDGAWFAYWGQGTLVTVSA VL: DIQMTQSPASLSVSVGETVTITCRASEKIYSNLAWYQQKQGKSPQLLVYAATNLADGVPSRFSGSGSGTQFSLKINSLQPEDFGSYYCQHFWGIPWTFGGGTKLEIKR
2 | 18 nM | 319 | 0.01 nM | – | 0.02 nM | 0.64 nM | 0.11 nM | 9.48 nM | 144 | – | – | 7F21A1 (antibody, V domains shown, Mouse anti-human OSCAR mAb; The heavy chain entry covers only VH-CH1 and the start of the hinge) VH: QVQLQQSGAELVRPGTSVKVSCRSSGYAFTNYLIEWIKQRPGQGLEWIGVITPGSGGTNYNENFKDKATLTADKSSNTAYMQLTSLTSDDSAVYFCARSFDYDGAWFAYWGQGTLVTVSA VL: DIQMTQSPASLSVSVGETVTITCRASEKIYSNLAWYQQKQGKSPQLLVYAATNLADGVPSRFSGSGSGTQFSLKINNLQSEDFGSYYCQHFWGTPWTFGGGTKLEIKR
3 | 18 nM | 102 | 0.12 nM | 0.49 nM | – | 1.59 nM | 2.06 nM | 1.2 nM | 55 | – | – | 7F10A1 (antibody, V domains shown, Mouse anti-human OSCAR mAb; The heavy chain entry covers only VH-CH1 and the start of the hinge) VH: QVQLQQSGAELARPGASVKLSCKASGYTFTDNYINWVKQRTGQGLEWIGEIYPGSGNTYYNEKFKGKATLTADKSSSTAYMQLSSLTSEDSAVYFCARSANRYDRGDFDYWGQGTPLTVSS VL: QILLTQSPAIMSASPGEKVTMTCSASSSVSYMHWYQQKPGSSPKPWIYDTSNLASGFPARFSGSGSGTSYSLIISSMEAEDAATYYCHQRSSYPYTFGGGTKLEIKR
4 | 0.5 nM | -1.5 | – | – | – | – | 0.02 nM | – | -3.4 | 0.46 nM | 1.12 nM | 16F119 (antibody, V domains shown, Fully human mAb from HuMab mice; also called 16F119 (Hu); 16F119A5) VH: QVQLVQSGAEVKKPGSSVKVSCKVSGGTFSNYAISWVRQAPGQGLEWMGRIIPILGIAAYAQRFRDRVTITADKFTSTVYMELSSLRSEDTAVYYCASGQLGTPYWYFDLWGRGTLVTVSS VL: not shown
5 | 0.3 nM | -1.9 | – | – | – | – | 0.06 nM | – | -3.2 | 0.1 nM | 0.21 nM | 16F56 (antibody, V domains shown, Fully human mAb from HuMab mice; also called 16F56 (Hu); 16F56A2) VH: QVQLVQSGAEVKKPGSSVKVSCKASGGTFSNYAISWVRQAPGQGLEWMGRIIPILGIAHNAQKFQDRVTITADKSTSTAYMELSSLRSEDTAVYYCASPSSGKGLPYWFFDLWGRGTLVTVSS VL: DIQMTQSPSFLSASVGDRVTITCRASQSISSYLNWYQQKPGKAPKLLIYAASSLQSGVPSRFSGSGSGTDFTLTISSLQPEDFATYYCQCGYSTPLTFGGGTKVEIKR
6 | 4.5 nM | 83.6 | 0.55 nM | 0.23 nM | – | 0.62 nM | – | 2.47 nM | 56.3 | – | – | 7F14A1 (antibody, V domains shown, Mouse anti-human OSCAR mAb; also called 7F14A4) VH: QVQLKESGPGLVAPSQSLSITCSVSGFSLTSYGVHWVRQPPGKGLEWLGVMWAGGSTNYNSALMSRLSISKDNSKSQVFLKMNSLQTDDSAMYYCALQKGYGNYFDYWGQGTTLTVSS VL: QIVLTQSPAIMSASPGEKVTMTCSASSSVNYMHWYQQKSGTSPKRWIYDTSNLASGVPTRFSGSGSGTSYSLTISSMEAEDAATYYCQQWSSDPLTFGAGTKLELKR
7 | 2.7 nM | 19.3 | 0.14 nM | – | – | 0.91 nM | – | 3.48 nM | 19.2 | 2.49 nM | 1.28 nM | 7F6A1 (antibody, V domains shown, Mouse anti-human OSCAR mAb; The heavy chain entry covers only VH-CH1 and the start of the hinge) VH: DVKLVESGGGLVKPGGSLKLSCAASGFTFSSYVMSWVRQTPEKRLEWVATISSGGSYTYYPDSVKGRFTISRDNAKNTLYLQMSSLKSEDTAMYYCTREGGNSPDYWGQGTTLTVSS VL: ENVLTQSPAIMSASPGEKVTMTCSVSSSISYMHWYRQKSFTSPQLWIYDTSKLASGVPGRFSGSGSGISYSLTISSMEAEDVATYYCFQGSEYPLTFGAGTKLELKR
8 | – | 1 | – | – | – | – | 0.86 nM | – | 1.7 | > 20 nM | 6.56 nM | 6F6B (antibody, V domains shown, Mouse anti-OSCAR mAb) VH: EVQLQQSGAELVKPGASVKLSCTASGFNIKDTYVHWVKQRPDQGLEWIGRIDPAIGNTKYDPKFRGKATITADSSSNTAYLQLSSLTSEDTAVYYCARLSYGNYGLDYSMDYWGQGTSVTVSS VL: DIVLTQSPATLSVTPGDSVSLSCRASQSITNNLHWYQQKSHESPRLLIKYASQSISGIPSRFRGSGSGTDFTLSINSVETEDFGVYFCQQSNTWPRTFGGGTKLEIKR
9 | – | 13.8 | – | – | – | – | 0.69 nM | – | 9.5 | > 20 nM | 8.06 nM | 6F3A (antibody, V domains shown, Mouse anti-OSCAR mAb) VH: EVQLQQSGAELVKPGASVKLSCTASGFNIKDTYVHWVKQRPDQGLEWIGRIDPAIGNTKYDPKFRGKATITADSSSNTAYLQLSSLTSEDTAVYYCARLSYGNYGLDYSMDYWGQGTSVTVSS VL: DIVLTQSPATLSVTPGDSVSLSCRASQSITNNLHWYQQKSHESPRLLIKYASQSISGIPSRFRGSGSGTDFTLSINSVETEDFGVYFCQQSNTWPRTFGGGTKLEIKR
